The values below are quoted from earlier work in PMC6008586, “Analysis of transition state mimicry by tight binding aminothiazoline inhibitors provides insight into catalysis by human O-GlcNAcase” (Chemical Science, 2016).

As a reminder, the pKa is the pH at which an ionisable group is half protonated.

The target of the data set is Asp174 (UniProt position 174, FALLFDDIDHN). The data set can be described thus: kinetics. As to conditions: the article refers the ionisation state to the resting enzyme; free-enzyme versus enzyme-substrate complex is not specified.

With “O-GlcNAcase (OGA, protein O-GlcNAc hydrolase, GH84) (Homo sapiens)”, the pKa is reported as 5.2.
